Test results: patent publication US12527879B2, “Ligands targeted to epidermal growth factor receptors and compositions for use in treating tumors” (priority 2019, dated 2026)

B1: EGFR-s10: soluble scFv generated from phage clone EGFR-PC10; amino acid sequence SEQ ID NO: 9 (protein)
scFv: EVQLVESGGGLVQPGGSLRLSCAASGFNLSSFWMSWVRQAPGKGLEWVANINHDGSDKYYVDSVKGRFSISRDNTKNSVYLQMDSLRGEDTAVYYCAKGKSLYDGSALDMWGQGTMVTVSSGGGGSGGGGSGGGGSDIVMTQSPSTLSASVGDRVTITCRASQTIGRWLAWYQQKPGKAPKLLIYGASSLQSGVPSRFSGSGSGTDFTLTISSLQPEDFATYYCQQSYSTLWTFGQGTKLEIKR
modifications: Whole scFv
B2: EGFR-s10-LD (conjugate)
scFv: EVQLVESGGGLVQPGGSLRLSCAASGFNLSSFWMSWVRQAPGKGLEWVANINHDGSDKYYVDSVKGRFSISRDNTKNSVYLQMDSLRGEDTAVYYCAKGKSLYDGSALDMWGQGTMVTVSSGGGGSGGGGSGGGGSDIVMTQSPSTLSASVGDRVTITCRASQTIGRWLAWYQQKPGKAPKLLIYGASSLQSGVPSRFSGSGSGTDFTLTISSLQPEDFATYYCQQSYSTLWTFGQGTKLEIKR
modifications: left off: small tags and cut ends
B3: EGFR-s10-LV (conjugate)
scFv: EVQLVESGGGLVQPGGSLRLSCAASGFNLSSFWMSWVRQAPGKGLEWVANINHDGSDKYYVDSVKGRFSISRDNTKNSVYLQMDSLRGEDTAVYYCAKGKSLYDGSALDMWGQGTMVTVSSGGGGSGGGGSGGGGSDIVMTQSPSTLSASVGDRVTITCRASQTIGRWLAWYQQKPGKAPKLLIYGASSLQSGVPSRFSGSGSGTDFTLTISSLQPEDFATYYCQQSYSTLWTFGQGTKLEIKR
modifications: left off: small tags and cut ends

Columns and labels:
[1] = test system: FaDu cells; assay: Endocytosis assay of soluble EGFR-s10 scFv, FaDu; type: cell-based, human; conditions: 30 min, confocal microscopy
Description: (§1) Cells were incubated with EGFR-s10 for 30 min at 4° C. or 37° C. Following a PBS wash, the cells were fixed with 2% paraformaldehyde and permeabilized with 0.1% TRITON® X-100. Blocking was accomplished by adding 3% BSA. Mouse ANTI-FLAG antibodies were added to the cells and labeled with FITC anti-mouse IgG. Nuclei were stained with DAPI, and cells were observed on a confocal microscope (TCS-SP5, Leica).
(§2) We produced soluble scFv from EGFR-PC10 and designated it as EGFR-s10. Target binding and internalization are essential requirements of LTL-targeting moieties. We investigated these features of EGFR-s10 in SCCHN cancer cell lines. FaDu cells and Ca9-22 cells were separately incubated with EGFR-s10 at 4° C. or 37° C. for 30 min and compared with isotypic IgG controls. […] (FIGS. 3A-B).

[2] = test system: Ca9-22 cells; assay: Endocytosis assay of soluble EGFR-s10 scFv, Ca9-22; type: cell-based, human; conditions: 30 min, confocal microscopy
Description: as §1, §2

[3] = molecular target: T1, human EGFR-Ex-Fc (Homo sapiens, UniProt P00533); assay: Recognition of human EGFR-Ex-Fc by EGFR-s10; type: binding
T1 construct: the extracellular domain of human EGFR-Fc fusion protein (EGFR-Ex-Fc); purchased R&D system
Excerpt: (§3) EGFR s10 recognized both human and marine EGFR-Ex-Fc. This feature eliminates any requirements for a surrogate molecule to evaluate toxicity in murine platforms. After validating internalization of EGFR-s10 in target cells, we fabricated LTLs loaded with doxorubicin or vinorelbine (EGFR-s10-LD and EGFR-s10-LV, respectively) using a thin film method and PEGylation of EGFR-s10. […] The zeta-potentials were all higher than required to prevent formation of aggregates. […] In summary, EGFR-specific binding of EGFR-s10 was retained through chemical processing, and the resulting LTLs fulfilled the requirements of anti-neoplastic liposomal drugs, indicating suitability for further development.

[4] = molecular target: T2, marine EGFR-Ex-Fc (Mus musculus, UniProt Q01279); assay: Recognition of murine EGFR-Ex-Fc by EGFR-s10; type: binding
T2 construct: the extracellular domain of human EGFR-Fc fusion protein (EGFR-Ex-Fc)
Excerpt: as §3

[5] = test system: FaDu cells; assay: In vitro cytotoxicity assay (WST-1), FaDu; type: cell-based, human
Description: (§4) FaDu and Ca9-22 cells were incubated with various concentrations of non-targeted liposomal drugs, or EGFR-s10-conjugated LTLs for 4, 8, 16 and 24 hr. The medium was replaced with complete medium for 48 hr, and 4-[3-(4-iodophenyl)-2-(4-nitrophenyl)-2H-5-tetrazolio]-1,3-benzene disulfonate (WST-1) was added at 0.5 mg/ml. After the cells were incubated for 3 hr at 37° C., the reaction products' absorbance at 440-nm was measured, and half maximal inhibitory concentrations (IC50) were calculated.
(§5) The cytotoxicity of EGFR-s10-conjugated LTLs was compared to that of non-targeting counterparts in human SCCHN cell lines. Cell viability was analyzed by the WST-1 assay and calculated as percentage of living cells.

[6] = Zeta-potential by laser Doppler electrophoresis; type: physicochemical
Description: (§6) The average particle size of liposomes was determined by dynamic light scattering (DLS) at 25° C. using Malvern Zetasizer Nano ZS (Malvern instruments) with a 633-nm laser and a detection angle of 90°. The zeta-potential of the liposomes was measured using laser Doppler electrophoresis on the Malvern Zetasizer Nano ZS.

[7] = test system: Ca9-22 cells; assay: In vitro cytotoxicity assay (WST-1), Ca9-22; type: cell-based, human
Description: as §4, §5

[8] = Particle size by dynamic light scattering; type: physicochemical; conditions: DLS at 25° C.
Description: as §6

[9] = test system: Ca9-22 subcutaneous xenograft; assay: Murine subcutaneous Ca9-22 xenograft therapeutic assay; type: in vivo; conditions: 1.5 mg/kg twice a week for 4 weeks
Description: FaDu and Ca9-22 cells were inoculated s.c. into the flanks of 8- to 10-week-old Nod-SCID mice (1×10^6 cells/mouse). The diameters of the resulting tumors were measured twice per week, and tumor volume was calculated as follows: large diameter×(small diameter)^2×0.52. When tumors reached a mean volume of 350 mm^3, mice with similarly sized tumors were randomized into treatment cohorts (n=8 mice/group). Therapeutic regimens were injected intravenously (i.v.) as PBS, non-targeted liposomal drugs, or EGFR-s10 conjugated LTLs at 1 mg/kg, twice a week for 4 weeks, with a cumulative dose of 8 mg/kg for each group. The tumor volume was monitored twice a week. Premature death endpoints included weight loss greater than 5 g, inability to eat, or tumor volume exceeding 2000 mm^3.
The LTL treatment confers a statistically significant survival advantage over the non-targeting liposome (p=0.00153) and the median survival time of LTL group was 1.5-times longer than that of NTL group (94 days versus 60 days, respectively; FIG. 5D, upper and lower panels). We also tested singlet vinorelbine treatment in forms of free drug, NTL or LTL, with a dose of 1.5 mg/kg twice a week for 4 weeks in subcutaneously Ca9-22-xenografted NOD/SCID mice.

Molecule | binding to cells ([1]; 4° C.) | internalization ([1]; 37° C.) | binding to cells ([2]; Ca9-22, 4° C.) | internalization ([2]; Ca9-22, 37° C.) | recognition of human EGFR-Ex-Fc [3] | recognition of marine EGFR-Ex-Fc [4] | IC50 relative to non-targeting liposome [5] [fold] | ζ-potential [6] [mV] | IC50 relative to non-targeting liposome [7] [fold] | Z-average [8] [nm·days] | mean tumor volume compared to NTL vinorelbine [9] | weight loss [9]
B1 | bound to the cell membrane | Internalization of EGFR-s10 (scFvs) as cytoplasmic aggregates was observed | bound to the cell membrane | Internalization of EGFR-s10 (scFvs) as cytoplasmic aggregates was observed | recognized | recognized | – | – | – | – | – | –
B2 | – | – | – | – | – | – | 0.33 | −28.1 | 0.0028 | 125 | – | –
B3 | – | – | – | – | – | – | 0.21 | −29.2 | 0.14 | 115.2 | smaller | no weight loss was observed
